From patent US20200308591A1, “PROMOTER REGION ANALYSIS METHODS AND CELLS FOR PRACTICING SAME” (Eurofins DiscoverX Corporation, priority 2019, published 2020)
Read-outs that look alike come from different tables or passages of the source. Each block holds one molecule with its values, some of them ahead of it.

Columns and labels:
TNFα = TNFα (Homo sapiens, UniProt P01375); assay: U2OS NFkB EFC reporter assay, inhibition of TNFα-stimulated NF-κB signaling; format: cell-based
Description: FIG. 5. Screening of inhibitors using U2OS NFkB EFC reporter cell-based assay. U2OS NFkB EFC reporter cells were treated with 2 nM TNFα (agonist) with or without various concentrations (and 3 lots) of anti-TNFα inhibitor adalimumab. In this example, the 3 lots of Humira tested were all derived from lot #1047318 run through a forced degradation protocol to simulate decreased specific activity or loss of activity where samples were non-stressed (e.g. the control), stressed 70° C. for 15 min and stressed 70° C. for 30 min.
U2OS NF-κB EFC Reporter cells can also be used to measure inhibition and study inhibitors of NF-κB signaling. […] The dose-dependence of this inhibitory response allowed measurement of the potency of different lots of adalimumab. […] Note that forced degradation is a method used in development of assay for biologics (protein therapeutics) to simulate lots with different potency, e.g. for QC/lot release assays, or loss of potency from various causes. […] The stability of Humira® over time can also be studied using this assay. It can be seen that two lots of Humira® stored at 4° C.
FIG. 6. […] The stability of expired lot #1017235 was also equivalent to that of lot #1047318 in the forced degradation experiment shown in FIG. 5.

[1] = biological target: human T-cell receptor CD3 subunit on Jurkat cells (human) (UniProt P07766); assay: cell-based or functional assay
IL2 promoter = assay: Jurkat IL2-promoter EFC reporter assay; format: cell-based; settings: 5K cells, stimulated 16h; ionomycin via NFAT, PMA via AP-1 response elements
Text: FIG. 9. Plasmid map for IL2-Promoter-EFC Reporter Plasmid. In this reporter construct, the complete endogenous IL2 gene promoter (“IL2prom”), which contains multiple specific transcription factor binding sites is fused upstream of and drives expression of carrier protein-ePL which is fused to a carrier protein. Contained within the IL2 promoter are binding sites for NFAT (1), NFkB (2), OCT (3), ARRE-2 (4) and NFAT/API (6) transcription factors and the IL2 minimal promoter (7). The DNA sequence of the IL2 promoter used is gtac[…]gctag (SEQ ID NO: 11) and is comprised of 8 different transcription factor binding sites and an IL-2 core promoter as described by Weaver et. al. (Molecular Immunology, 6 Mar. 2007, 44(11):2813-2819). The following 8 DNA elements […] (SEQ ID NO: 12), […] (SEQ ID NO:13), […] (SEQ ID NO:14), […] (SEQ ID NO:15), […] (SEQ ID NO:16), […] […]
FIG. 10. […] 5K Jurkat IL2 promoter reporter cells were plated in wells of 384 well plate and stimulated for 16h with either […] (squares) or […]+CD28 antibody (circles) at 37′C prior to adding FLASH detection reagent (+5×EA) with cell lysis (and reading EFC luminescence). […]
FIG. 11. […] 5K cells were plated in wells of 384 well plate and stimulated for 16h prior to adding FLASH detection reagent (+5×EA) with cell lysis (and reading luminescence). S/B is calculated by taking the RLU (with PMA/ionomycin)/RLU (without PMA/ionomycin).

NFAT signaling pathways = assay: U2OS NFAT EFC reporter assay, PMA/ionomycin stimulation; format: cell-based; settings: 5,000 cells, stimulated 20h, components given together as cocktail, read-out: potency of the cocktail expressed as component concentration
Description: NFAT EFC Reporter construct includes a promoter with 4 tandemly repeated (4×) NFAT transcription factor binding response elements, each having the sequence: […] (SEQ ID NO:5).
Cells were stimulated for 20h followed by detection by PathHunter® FLASH detection reagent (+Enzyme Acceptor (EA)) with cell lysis for 1h. 5K and 10K refers to the number of cells plated in each well of a 384 well plate. S/B is signal (top) over background (bottom) of the assay response curve.
A “cell stimulation” cocktail of phorbol 12-myristate 13-acetate (PMA) and ionomycin is known to activate “NFAT signaling pathways” and the NFAT transcription factor. […] Inhibition could be detected as decreases in relative light units (RLUs) with test compounds in the presence of stimulating doses of cell stimulation cocktail or other activating ligands.

[2] = biological target: endogenous IL-6 receptor in HepG2 cells (UniProt P08887); assay: cell-based or functional assay
IL-6 receptor = biological target: T1, IL-6 receptor (Homo sapiens, UniProt P08887); assay: HepG2 STAT3 pathway reporter cell line (Example 9); format: cell-based; settings: 5000 cells/well; 16 h at 37 °C
T1 construct: uses endogenous IL-6 receptor in HepG2 cells to detect IL-6 signaling; endogenous in cells; host or cells: HepG2
T1 sequence (P08887 20-468): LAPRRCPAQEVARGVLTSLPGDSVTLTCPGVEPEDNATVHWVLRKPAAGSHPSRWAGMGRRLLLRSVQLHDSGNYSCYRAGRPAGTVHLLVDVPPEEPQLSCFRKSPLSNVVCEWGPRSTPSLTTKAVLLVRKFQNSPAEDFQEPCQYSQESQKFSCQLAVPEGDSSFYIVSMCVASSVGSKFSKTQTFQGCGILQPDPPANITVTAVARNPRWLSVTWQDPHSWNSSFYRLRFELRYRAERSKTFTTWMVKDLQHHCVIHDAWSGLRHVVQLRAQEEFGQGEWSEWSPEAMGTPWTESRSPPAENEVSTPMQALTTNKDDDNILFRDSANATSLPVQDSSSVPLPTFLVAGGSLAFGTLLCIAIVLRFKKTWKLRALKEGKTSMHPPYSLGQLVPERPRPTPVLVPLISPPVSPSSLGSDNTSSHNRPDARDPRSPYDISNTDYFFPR
T1 sequence (P40189 23-918 partner): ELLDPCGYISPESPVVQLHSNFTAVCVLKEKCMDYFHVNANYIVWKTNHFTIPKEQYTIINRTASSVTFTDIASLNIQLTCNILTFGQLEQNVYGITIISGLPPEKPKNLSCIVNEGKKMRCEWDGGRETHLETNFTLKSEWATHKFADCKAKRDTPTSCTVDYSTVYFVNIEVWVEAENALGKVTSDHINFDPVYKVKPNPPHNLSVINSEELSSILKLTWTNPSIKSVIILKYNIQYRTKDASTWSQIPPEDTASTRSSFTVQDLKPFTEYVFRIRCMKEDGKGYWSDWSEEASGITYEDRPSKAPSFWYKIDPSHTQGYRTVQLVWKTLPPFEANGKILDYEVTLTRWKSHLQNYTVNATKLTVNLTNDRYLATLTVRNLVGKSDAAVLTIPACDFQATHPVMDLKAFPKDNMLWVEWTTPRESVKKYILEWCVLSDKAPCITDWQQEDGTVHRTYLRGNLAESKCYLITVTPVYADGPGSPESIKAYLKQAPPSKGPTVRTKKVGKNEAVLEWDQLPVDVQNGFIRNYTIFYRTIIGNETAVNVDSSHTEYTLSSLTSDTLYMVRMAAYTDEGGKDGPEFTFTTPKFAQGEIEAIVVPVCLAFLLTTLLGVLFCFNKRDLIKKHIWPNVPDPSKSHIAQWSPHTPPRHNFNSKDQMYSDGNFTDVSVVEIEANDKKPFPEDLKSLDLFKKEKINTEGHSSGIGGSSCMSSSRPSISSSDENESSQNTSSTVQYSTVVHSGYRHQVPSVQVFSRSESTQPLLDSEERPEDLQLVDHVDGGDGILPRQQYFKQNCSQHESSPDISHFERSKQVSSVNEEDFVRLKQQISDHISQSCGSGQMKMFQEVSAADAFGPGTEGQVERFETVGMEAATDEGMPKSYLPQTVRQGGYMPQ
Text: A reporter cell line was engineered to express an Enzyme Donor (ED) tagged carrier protein controlled by a pathway-inducible transcriptional response element. Pathway activation results in induced expressions of the ED-tagged protein. Addition of exogenous Enzyme Acceptor (EA), and buffer, lyses the cell and forces complementation of the ED and EA enzyme fragments.
In this example, the cell line is a STAT3 (signal transducer and activator of transcription 3) pathway reporter cell line. The cells are HepG2 cells that include a nucleic acid encoding a β-galactosidase donor fragment (ED) having the amino acid sequence […] (SEQ ID NO:30) operably coupled to a promoter region comprising a STAT3 response element.
Cells were plated in a 96-well plate and incubated at 37° C. and 5% CO2 to allow the cells to attach and grow. Cells were then stimulated with a control agonist (here, IL-6), using the assay conditions described below. Following stimulation, signal was detected using the PathHunter® ProLabel®/ProLink™ Detection Kit (Eurofins DiscoverX Corporation) according to the recommended protocol.
Cell line for HepG2 STAT3 assay uses endogenous IL-6 receptor in HepG2 cells to detect IL-6 signaling.

[3] = biological target: CD40 receptor, endogenous in U2OS NFκB EFC reporter cells (UniProt P25942); assay: cell-based or functional assay
Sequence of CD40 receptor, endogenous in U2OS NFκB EFC reporter cells (P25942 21-277 limits assumed): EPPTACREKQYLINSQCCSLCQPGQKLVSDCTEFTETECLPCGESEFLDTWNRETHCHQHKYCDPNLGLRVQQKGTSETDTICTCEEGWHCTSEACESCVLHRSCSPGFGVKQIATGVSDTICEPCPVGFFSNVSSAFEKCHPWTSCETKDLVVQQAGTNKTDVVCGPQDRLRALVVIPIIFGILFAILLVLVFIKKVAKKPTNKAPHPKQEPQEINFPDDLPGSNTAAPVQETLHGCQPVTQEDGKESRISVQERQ

Sequence of CD40 ligand (CD40L) (P29965 113-261 limits assumed): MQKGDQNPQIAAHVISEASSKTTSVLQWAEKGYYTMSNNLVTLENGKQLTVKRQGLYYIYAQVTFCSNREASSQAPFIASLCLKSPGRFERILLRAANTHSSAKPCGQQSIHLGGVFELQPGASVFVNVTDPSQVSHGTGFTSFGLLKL
Sequence of TNFα (P01375 77-233 limits assumed): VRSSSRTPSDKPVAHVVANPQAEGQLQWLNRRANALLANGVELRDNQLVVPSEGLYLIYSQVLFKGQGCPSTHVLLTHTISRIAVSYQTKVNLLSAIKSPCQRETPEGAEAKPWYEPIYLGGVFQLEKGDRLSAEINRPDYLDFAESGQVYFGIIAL
Sequence of IL-6 (P05231 30-212 limits assumed): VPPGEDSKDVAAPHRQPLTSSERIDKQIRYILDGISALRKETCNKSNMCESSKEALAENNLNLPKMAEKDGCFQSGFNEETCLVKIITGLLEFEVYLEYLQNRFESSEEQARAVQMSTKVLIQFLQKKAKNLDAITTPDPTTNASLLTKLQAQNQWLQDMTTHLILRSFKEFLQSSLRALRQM

- inhibition of TNFα-stimulated NF-κB signaling (TNFα; 2 nM TNFα (agonist)): can inhibit
- change of inhibitory potency after forced degradation (TNFα; samples subjected to forced degradation for 0, 15 or 30 min at 70° C.): graded loss of potency (right shift)
Molecule: adalimumab

- EC50 for control agonist stimulation, HepG2 STAT3 pathway reporter cell line [2]: 0.000601 µg/mL
- signal:background ratio at agonist EMAX, HepG2 STAT3 pathway reporter cell line [2]: 21.3
Molecule: IL-6 (from UniProt P05231 30-212) (ligand)

- EC50 of stimulating OKT3 cells, Jurkat NFAT EFC reporter co-culture assay [1]: 700 cells
Molecule: OKT3 ligand expressed and presented on the surface of CHO-K1 cells (scFv)

Further lines, the molecule ahead of its results:

Molecule: anti-CD3 antibody [OKT3]
- EC50 for control agonist stimulation, Jurkat NFAT pathway reporter cell line (Example 8, plate-coated antibody) [1]: 0.302 µg/mL
- signal:background ratio at agonist EMAX, Jurkat NFAT pathway reporter cell line (Example 8) [1]: 7.6

Molecule: C[C@H](CCC(=O)O)C[C@H](C)C[C@H](C)C(=O)/C=C(\O)[C@H](C)C[C@H](C)C/C=C/[C@@H](C)[C@@H](O)[C@@H](C)[C@@H](O)C[C@@H]1CC[C@@](C)([C@H]2CC[C@@](C)([C@@H](C)O)O2)O1 [ionomycin]
- activation of elements in the IL2-promoter EFC reporter construct (IL2 promoter): increase the activation
- EC50 (NFAT signaling pathways; Homo sapiens, U2OS): 63 nM

Molecule: IL-6: control agonist signalling through endogenous IL-6 receptor in HepG2 cells
- EC50 for control agonist stimulation (IL-6 receptor): 0.000601 µg/mL
- signal:background ratio at agonist EMAX (IL-6 receptor): 21.3

Molecule: CD40 ligand (CD40L) (from UniProt P29965 113-261)
- EC50 for control agonist stimulation, U2OS NF-κB pathway reporter cell line (Example 12) [3]: 0.0886 µg/mL
- EC50 for control agonist stimulation, U2OS NFκB pathway reporter cell line (Example 7) [3]: 0.225 µg/mL
- signal:background ratio at agonist EMAX, U2OS NFκB pathway reporter cell line (Example 7) [3]: 26.3
- signal:background ratio, U2OS NF-κB pathway reporter cell line (Example 12) [3]: 103

Molecule: CCCCCCCCCCCCCC(=O)O[C@@H]1[C@@H](C)[C@@]2(O)[C@@H](C=C(CO)C[C@]3(O)C(=O)C(C)=C[C@@H]23)[C@@H]2C(C)(C)[C@]12OC(C)=O [PMA, phorbol 12-myristate 13-acetate]
- activation of elements in the IL2-promoter EFC reporter construct (IL2 promoter): increase the activation
- EC50 (NFAT signaling pathways): 3.8 nM
